Source: the supplement of paper PMC9170038

Experiments:
MS2 coat protein [1] = assay: apparent KD of MS2 coat protein; designed switch direction (-1 OFF switch, 1 ON switch): 1; higher = weaker reporter binding
Method in brief: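 The reported apparent KD is a per-design median over clusters, from curve fits of normalised cluster fluorescence. Protein titrations used SNAP-549-labelled MS2 coat protein, doubled from 0.7 or 1.5 nM to 3 µM, in Tris-HCl pH 7.5 buffer with KCl, MgCl2, BSA, DTT, tRNA and Tween-20, with no input, 200 uM small-molecule ligand, or an oligonucleotide input. The RNA switches were transcribed on Illumina chips by stalled E. coli RNA polymerase.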

MS2 coat protein [2] = assay: apparent KD of MS2 coat protein; higher = weaker reporter binding; settings: Eterna round: R107
Method in brief: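 Titrations with SNAP-549-labelled MS2 coat protein ran in twofold steps from 0.7 or 1.5 nM to 3 µM, each step taking 0.8–1.5 h at the start and 10–20 min toward the end. The targets were designed RNA switches transcribed on-chip from Illumina sequencing clusters, held in 100 mM Tris-HCl pH 7.5, 80 mM KCl, 4 mM MgCl2, without or with constant ligand. Apparent KD was taken per design as the median of normalised cluster binding-curve fits.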

[3] = input ligand: microRNA oligo, concentration not stated
[4] = Eterna round: R95, input ligand: FMN 200 uM
[5] = Eterna round: R95, input ligand: microRNA oligo, concentration not stated
[6] = Eterna round: R95, input ligand: none
[7] = input ligand: theophylline 20 uM
[8] = input ligand: tryptophan 2.4 mM
[9] = input ligand: theophylline 2 mM

For “UGUUAGUAGACAGGAUAUUGAAUGUUAAGUAUUAACAUGAGGAUCACCCAUGUAUUAGAUUGGUACAAGAAGGGUCAAGUAAGU [JR_SSNG2_Sub011] (Eterna round: R96, puzzle: Same State NG 2)”, the “apparent KD of MS2 coat protein” value (MS2 coat protein [1]; input ligand: FMN 200 uM) was 0.38 µM, the “apparent KD of MS2 coat protein” value (MS2 coat protein [1]; [3]) was 0.539 µM and the “apparent KD of MS2 coat protein” value (MS2 coat protein [1]; input ligand: none) was 0.247 µM.
“ACAUGAGAUUUAGGAUAUAUAGUACCUACAUGUGACAUGAGGAUCACCCAUGUGGUAAGUAUGACAUAGAAGGAAAAGAUAUGU [Equivalance 98 - Jieux - Same State NG 2] (Eterna round: R96, puzzle: Same State NG 2)” was tested, and the “apparent KD of MS2 coat protein” value (MS2 coat protein [1]; [3]) was 0.0479 µM.
“UCAAGCGUUUGGCUCGUCUUAUGUUUUGUACAUGAGGAUCACCCAUGUUUUGUACGAUCCAGUUAGAUGGUAUUUUG [JR_SHM208A_Sub038] (puzzle: Sensor for hsa-mir-208a)” was tested, and the “apparent KD of MS2 coat protein” value (MS2 coat protein [1]; [4]) was 0.0398 µM, the “apparent KD of MS2 coat protein” value (MS2 coat protein [1]; [5]) was 0.121 µM and the “apparent KD of MS2 coat protein” value (MS2 coat protein [1]; [6]) was 0.0546 µM.
In the case of “AUUAUUUAUGCAGGAUAUGAUUAACAUGAGGAUCACCCAUGUGGUGUUGUGAGUAAGGAGAGUGAUCAGAAGGGCAUUUUUUGU [JMF's solution 54] (Eterna round: R96, puzzle: Same State NG 2)”, the “apparent KD of MS2 coat protein” value (MS2 coat protein [1]; input ligand: FMN 200 uM) is reported as 0.713 µM, the “apparent KD of MS2 coat protein” value (MS2 coat protein [1]; [3]) is reported as 0.531 µM and the “apparent KD of MS2 coat protein” value (MS2 coat protein [1]; input ligand: none) is reported as 0.464 µM.
For “CGUCCAGCCUGAGCUGGACAAAAGCAUGUACAUGAGGAUCACCCAUGUUCAUGUACAAGCUUUUUGCUCGUCUUAUC [salish99_208a_r3_055] (puzzle: Sensor for hsa-mir-208a)”, the “apparent KD of MS2 coat protein” value (MS2 coat protein [1]; [4]) was 0.597 µM, the “apparent KD of MS2 coat protein” value (MS2 coat protein [1]; [5]) was 0.0144 µM and the “apparent KD of MS2 coat protein” value (MS2 coat protein [1]; [6]) was 0.587 µM.
With “GCUUCACAUGAGGAUCACCCAUGUUUUCGGAGUCGAGGAUAUGGUCACUGUAAACAGUGGCCAGAAGGCGAGGAGC [SS1 - Son of Teenbexe v8] (puzzle: Same State 1)” the “apparent KD of MS2 coat protein” value (MS2 coat protein [1]; [5]) was 0.017 µM.
In the case of “GGUCGGACAUGAGGAUCACCCAUGUGGUGAGCGGAAACGCCAUAGGAUAUCUGUCCGAAAAGGUCAGAGAAGGGUGAACCGACC [Fiskers NG3ss - 68] (Eterna round: R96, puzzle: Same State NG 3)”, the “apparent KD of MS2 coat protein” value (MS2 coat protein [1]; input ligand: FMN 200 uM) is reported as 0.184 µM, the “apparent KD of MS2 coat protein” value (MS2 coat protein [1]; [3]) is reported as 0.311 µM and the “apparent KD of MS2 coat protein” value (MS2 coat protein [1]; input ligand: none) is reported as 0.135 µM.
“GGUCCAGCCUGAGCUGGACAAAAGCAUGUACAUGAGGAUCACCCAUGUUCAUGUACAAGCUUUUUGCUCGUCUUACC [salish99_208a_r3_090x] (puzzle: Sensor for hsa-mir-208a)” was tested, and the “apparent KD of MS2 coat protein” value (MS2 coat protein [1]; [4]) was 0.57 µM, the “apparent KD of MS2 coat protein” value (MS2 coat protein [1]; [5]) was 0.0159 µM and the “apparent KD of MS2 coat protein” value (MS2 coat protein [1]; [6]) was 0.823 µM.
With “CGUAGGUAGCUGGAGGAUAUUCGAGUGGUAACAUGAGGAUCACCCAUGUGGAGAGAGGUACAUGAGGAGAAGGCUAGCUGCCUGC [JL-ss2-3.14 JL mod] (puzzle: Same State 2)” the “apparent KD of MS2 coat protein” value (MS2 coat protein [1]; [4]) was 0.0134 µM, the “apparent KD of MS2 coat protein” value (MS2 coat protein [1]; [5]) was 0.022 µM and the “apparent KD of MS2 coat protein” value (MS2 coat protein [1]; [6]) was 0.0271 µM.
For “AGUCCAGCCUGAGCUGGACAAAAGCAUGUACAUGAGGAUCACCCAUGUCAUGUACAAGCUUUUUGUUCGUCUUAAUA [Zipper 49 - 13] (puzzle: Sensor for hsa-mir-208a)”, the “apparent KD of MS2 coat protein” value (MS2 coat protein [1]; [4]) was 0.258 µM, the “apparent KD of MS2 coat protein” value (MS2 coat protein [1]; [5]) was 0.0146 µM and the “apparent KD of MS2 coat protein” value (MS2 coat protein [1]; [6]) was 0.35 µM.
With “UGAAUGAUGUUAGGAUAUACAUGAGGAAUCCUCGUAGAAGGAACAUGACAUGAGGAUCACCCAUGUAGCGCUCCGUAGAGCGCA [JL SSNG1 1.19] (Eterna round: R96, puzzle: Same State NG 1)” the “apparent KD of MS2 coat protein” value (MS2 coat protein [1]; input ligand: FMN 200 uM) was 0.21 µM, the “apparent KD of MS2 coat protein” value (MS2 coat protein [1]; [3]) was 0.0304 µM and the “apparent KD of MS2 coat protein” value (MS2 coat protein [1]; input ligand: none) was 0.146 µM.
In the case of “ACGUCUCGAAAACUCGUAGUAACAAUAGAUACCAGUAGCGAGAGUUACCCUUGGCAGCUACAUGAGGAUCACCCAUGUACGAGGA [XTheo A #27]”, the “apparent KD of MS2 coat protein” value (MS2 coat protein [2]; input ligand: arginine 13.2 mM) is reported as 0.0191 µM, the “apparent KD of MS2 coat protein” value (MS2 coat protein [2]; [7]) is reported as 0.026 µM and the “apparent KD of MS2 coat protein” value (MS2 coat protein [2]; [8]) is reported as 0.0181 µM.
In the case of “CAGUCAGUCAGUCAAUGAGUGAGGCAUGAAGGAGCGUGGGAAACCACAGGUAGGUCGCAUGCGAAACAUGAGGAUCACCCAUGUU [SSArg A #3]”, the “apparent KD of MS2 coat protein” value (MS2 coat protein [2]; input ligand: arginine 13.2 mM) is reported as 0.0294 µM, the “apparent KD of MS2 coat protein” value (MS2 coat protein [2]; input ligand: none) is reported as 0.0479 µM and the “apparent KD of MS2 coat protein” value (MS2 coat protein [2]; [7]) is reported as 0.0425 µM. The “apparent KD of MS2 coat protein” value (MS2 coat protein [2]; [9]) was 0.0519 µM and the “apparent KD of MS2 coat protein” value (MS2 coat protein [2]; [8]) was 0.0263 µM.
“UGUAUGUGAUCUGAUACCAGAGUGACGCGAAAGCGAACCUGAGGAUCACCCUGGUAAUAACUCCCUUGGCAGCAGAUCGCAUACU” was tested, and the “apparent KD of MS2 coat protein” value (MS2 coat protein [2]; input ligand: arginine 13.2 mM) was 0.0731 µM, the “apparent KD of MS2 coat protein” value (MS2 coat protein [2]; input ligand: none) was 0.0611 µM and the “apparent KD of MS2 coat protein” value (MS2 coat protein [2]; [7]) was 0.0443 µM. For the same sequence, the “apparent KD of MS2 coat protein” value (MS2 coat protein [2]; [9]) was 0.0207 µM and the “apparent KD of MS2 coat protein” value (MS2 coat protein [2]; [8]) was 0.0698 µM.
In the case of “AACAUGUGGAUCACCCAUGUAUGUUCUGAAGGAGCGCCACAUGAGGCAGGUAGGUCGCAGGUACAUGAGGAUCACCCAUGUGUCA [Exclusion Arginine A 4]”, the “apparent KD of MS2 coat protein” value (MS2 coat protein [2]; input ligand: arginine 13.2 mM) is reported as 0.0545 µM, the “apparent KD of MS2 coat protein” value (MS2 coat protein [2]; input ligand: none) is reported as 0.192 µM and the “apparent KD of MS2 coat protein” value (MS2 coat protein [2]; [7]) is reported as 0.111 µM. For the same sequence, the “apparent KD of MS2 coat protein” value (MS2 coat protein [2]; [9]) was 0.193 µM and the “apparent KD of MS2 coat protein” value (MS2 coat protein [2]; [8]) was 0.158 µM.
